Experiment: yeast display, Sf9 membrane polyspecificity reagent, FACS + sequencing; frameworks hold sequencing errors
How it was run: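 In a synthetic yeast display library (Saccharomyces cerevisiae BJ5465), nanobody expression was induced with galactose for 36–48 hours. FACS gates were set low and high (top ~1%) using anti-HA fluorescence for expression and streptavidin fluorescence for binding of the Sf9 membrane reagent. Each polyreactivity label is drawn from the gate of origin.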

| Sequence | polyreactivity (PSR sort gate) |
| --- | --- |
| QVQLVESGGGLVQAGGSLRLSCAASGRIFSGNAMGWYRQAPRKERELVAAISRGGSTDYADSVKGRFTISRDNAKNTVYLQMNSLKPEDTAVYYCSARVNGKRRRYDYWGQGTQVTVSS | high polyreactivity |
| QVQLVESGGGLVQAGGSLRLSCAASGSTFGYYAMGWYRQAPGKERELVAAITSGGTTNYADSVKGRFTISRDNAKNTVYLQMNSLKPEDTAVYYCNAVGTFVRYWTDGRDGVTYDYWGQGTQVTVSS | low polyreactivity |
| QVQLVESGGGLVQAGGSLRLSCAASGSTFGDYAMGWYRQGPGKERELVASINQNGGDTYYADSVKGRFTISRDNAKNTVYLQMNSLKPEDTAVYYCAAEAGYYFQTVAIDMGYWGQGTQVTVSS | low polyreactivity |
| QVQLVESGGGLVQAGGSLRLSCAASGIILAFNAMGWYRQAPGKEREFVASISQGGSSTYYADSVKGRFTISRDNAKNTVYLQMNSLKREDTAVYYCAARSSRVRSPYQRYYYWGQGTQVTVSS | high polyreactivity |
| QVQLVESGGGLVQAGGSLRLSCAPSGFIFHKYVMGWYRQAPGKERELVAAISRSGASTYYADSVKGRFTISRDNAKNTVYLQMNSLKPEDTAVYYCNAQPGKWEYDYWGQGTQVTVSS | high polyreactivity |
| QFQLVESGGGLVQAGGSLRLSCAASGFIIEYNTMGWYRQAPGKERELVAAISFIGGRTYYADSVKGRFTISRDNAKNTVYLQMNSMKPEDNAVYYCKTRDGGYYCGARRVLYYYWGQGTQVTLSS | high polyreactivity |
| QVQLVESGGGLVQAGGSLRLSCAASGFTFYAYAMGWYRQAPGKERELVAAISKRGGITYYADSVKGRFTISRDNAKNTVYLQMNSLKPEDTAVYYCNADRRRRSGGFAGWHFQRNDYWGQGTLVTVSS | low polyreactivity |
| QVQLEESVGGLDQAVGSLRLSCAASGFTFNRYTMGWYRQAPGKEREFVASITRSGGSTYYADSVKGRFTISRDNAKNTVYLQMNSLTPEDTAVYYCAPVYQYSSRYDHWGQGTQVTVSS | high polyreactivity |
| QVQLVESGGGLVQAGGSLRLSCAASGSNFTTYSMGWYRQATGKERELVAASTSGSSTNYADSVKGRFTISRDNAKNTVYLQMNSLKPEDTAVYYCAVDREWPCYYYAMSKMYYWGQGTQVTVSS | low polyreactivity |
| QVQLVESGGGLVQAGGSLRLRCAASGSIFYRNAMGWYRQAPGTERELVAAISSDGSTNYADSVKGRFSISRDNAKNTVYLQMNSLKPEDTAVYYCNADYVQQVAKYQYGYEYGYWGQGTQVTVSS | low polyreactivity |
| QVQLVESGGALVQAGGSLRLSCDASGSTLWDYAMGWYRQAPRKERELVAASTQSTGDTHYADSVKGRFTLSRDNAKNTVYFQMNSLKPEDTAVYYCAADSYLSVYDPYGYWGQGTQVTVSS | low polyreactivity |
| QVQLVESGGGLVQAGGSFRLTCAASGRIFSPNAMGWYRQATGKEREFVAAINDRGGNTYYADSVKGRFTISRDNAKNTVYLQMNSLKPEDTAVYYCAATVTVFYTRYYYWGQGTQVTVSS | high polyreactivity |
| QVQLVESGGGLVQAGGSLRLICAASGSTFGVYDMGWYRKAPGKERELVAAISWRGITYYADSVKGRFTISRDNAKNTVYLQMNSLNPEDTAVYFCASYEWLAYTSAWYGYWGKGTQVTVSS | high polyreactivity |
| QVQLVESGGGLVQAGGSLRLSCAASGFTFVYYVMGLYRQAPGKERELVAAINAGGGSTYYADSVKGRFTISRDNAKNTVYLQMNSLKPEDTAVYYCNARVRVRLGRNWSSYYYWGQGTQVTVST | high polyreactivity |
| QVQLVESGGGLVQAGGSLRLSCAASGFIFWYYGMGWYRPAPGKERELVATITSGGSTTYADSVKGRFTISRDNAKNTVYLQMNSLKPEDTAVYYCAADLFYGYYSQADFEYWGQGTQVTVSS | high polyreactivity |
| QVQLVESGGGLVQAGGSLRLSCAASGFTFDENAMGWYRQAPGINYSGASTYYADSVKGRFTISRDNAKNTVYLQMNSLKADDTAVYYCAAEVVAQMNYWGQGTQVTVSS | low polyreactivity |
| QVQLVESGGGLVQAGGSLRLSCAASGSISWYYAMGWYRQAPGKEWEGVAAISDSGGDTYYADSVKGRFTISRDNAKNTVYLQMNSLKPEDTAVYYCAAQYRGSYRTTYDYWGQGTQVTVSS | low polyreactivity |
| QVQLVESGGGLVKAGGSLRLSCAASGSTLDPNVMGWYRQAPGKERELVAAITSGGSTYYADSVKGRFTISRDNAKNTVYLQMNSLKPEDTAVYYCAADSHGHVFYSWYDYWGQGTQVTVSS | low polyreactivity |
| QVQLVESGGGLVQAGGSLRLSCAASGSIFYYYAMGWYRQAPGKERELVATISSGGGSTYYADSVKGRFTISRDNAKNTVYLQMNSLKPEDTAVYYCAKRRWRSYYDSWGQGTQVTVSS | low polyreactivity |
| QVQLVESGGGLVQAGGSLRLSCAASGSIFPFYAMGWSRQAPGKERELVAAITWISGRTYYADSVKGRFTISRDNAKTTVYLQRNRLKPEDTAVYYCAVDYYSWLRRDDYWGQGTQVTVSS | low polyreactivity |
| QVQLVESGGGLVQAGGSLRLSCADSGSIFLIYAMGWYRQAPGKERELVATINRGDNTYYADSVKGRFTISRDNAKITVYLQMYSLKPEDTADGYWGQGTQVTGSS | low polyreactivity |
| QVQLVETGGGLVQAGGSLRLSCAASGRTFARYAMGWYRQAPGTERELVAAISWGGTRTYYADSVKGRFTISRDNAKNTVYLQMNSLKPEDTAVYYCAATYLYRDQPKWGGFAYTYGLWGQGTQVTVSS | high polyreactivity |

| Sequence | polyreactivity (PSR sort gate) |
| --- | --- |
| QVQLVESGGGLVQAGGSLRLSCAASGIIFTYYAMGWDRQAPGKERELVARISSSGGRTYYADSVKGRFTISRDNAKNTVYLQMNSLKPEDTAVYYCAAAIVSYGRNDYWGQGTQVTVSS | high polyreactivity |
| QVQLVESGGGLVQAGGSLRLSCAASGSIFVYYAMGWYRQAPGKERELVAAISQRGGRTYYADSVKGRFTISRDNAKNTVYLQMNSLKPEDTAVYYCAADSGPASAGYYYWGQGTQVTVSS | high polyreactivity |
| QVQLVESGGGLVQAGGSLRLSCSASGSTIRDYAMGWYRQAPGKERELVAVIDNSGGRTYYADSVKGRFTISRDNAKNTVYLQMNSLKPEDTAVYYCNTRRIAQYGYWGQGTEVTVSS | high polyreactivity |
| QVQLVESGGGLVQAGGSLRLSCAASGRTFGFYAMGWYRQAPGKERELVASITWRRGRTYYADSVKGRFTISRDNAKNTLYLQMNSLNPEDTAVYYCAAVTFSYDGYDYWGQGTQVTVSS | low polyreactivity |
| QVQLVESGGGLVQAGGSLRLSCAASGSIFSQYAMGWYRQAPGKERELVAAITYGGGSTYYADSVKGRFTISRDNAKNTVYLQMNCLKAEDTALYYCAKEFKYWGYPYDYWGQGTQVTVSS | low polyreactivity |
| QVQHVESGGGLVQAGGSLRLSCAASGRIFVRNAMGWYRQARGKERELVADITNGGSTNYADSVKGRFTISRDNAKNTVYLQMNSLKPEDTAVYYCAVERYRYPFDYWGQGTQVTVSS | low polyreactivity |
| QVQLVESGGGLVQAGGSLRLSCAASGITFHKYAMGWYRQAPGKESELVAAISSGGGTYYADSVKGRFTISRDNAKNTVYLQMNSLKPEDTAVYYCNADIEWLWVRYDYWGQGTQVTVSS | high polyreactivity |
| QVQLVESGGGLVQAGGSLRLSCAASGSIFGSYTMGWYRQAPGKERELVAAISLGGGSTYYADSVKGRFTISRDNAKNTVYLQMNSLKPEDTAVYYCAAVQIVSGTYDYYWGQGTQVTVSS | low polyreactivity |
| QVQLVESGGGLVQAGGSLRLSCAASGRTFYRNAMGWYRQAPGKERELVAAISSTGSTYSADSVKGRFTISRDNAKNTVYLQMNSLKPEDTAVYYCARGVHGIFGYWGQGTQVTVSS | low polyreactivity |
| QVQLVESGGGLVQAGGSLRLSCAASGSTFWTNAMGWYRQAPGKERQLVAASTEDGGSTYYADSVKGRFTISRDNAKNTVYLQMNSLKREVTAVYYCATVIGYLDDYLFPYPVPYYYWGQGTQVTVSS | low polyreactivity |
| QVQLVESGRGLVQAGGSLRLSCAASGSIFAFYAMGWYRPAAGKERELVAVITRSGGSTYYADSVKGRFTISRDNAKITVYLQMNSLKPEDTAVFYCAARTGYGYTRYEYWGQGTQVTVSS | high polyreactivity |
| QVQHVESGGGLVQAGGSLRLSCAASGNIFAVYAKGWYRQAPGKERELVAAITTGTNTYADSVKGRFTISRDNAKNTVYLQMNSLKPEDTAVYYCAARYYRPLDYWGQGTQLTVSS | low polyreactivity |
| QVQLVESGGGLVQAGGSLRLSCAASGRTFEYYAMGWYRQAPGKERELVAAIDSGGSTNYADSVKGRFTISRDNAKNTVYLQMNSLKPEDTAVYYCATEVDQNYNYDYWGQCTQVTVSS | low polyreactivity |
| QVQLVESGGGLVQAGGSLRLSCAASGFTLKSYAMGWYRQAPGKERELVASISRRGGSTYYADSVKGRFTISRDNAKNTVYLQMNSLKPEDTAVYYCNADYVRFPGNAYDYWGQGTQVTVSS | high polyreactivity |
| QFQLVESGGGLVQAGGSLRLSCAASGLTFGYYAMGWYRQAPGKERELVAAITSRGGSTYYADSVKRRFTISRDNAKNTVYLQMNSLKPEDTAVYYCAARYAEYGSWGQGTQVTVSS | high polyreactivity |
| QVQLVESGGGLVQAGGSLRLSCAASGIIFDEYAMGWYRQAPGKERELVAVIDWSGGSTYYADSVKGRFTISRDNAKKTVYLQMNSLKPEVTAVYYCAAEDDSSTPEFDYWGQGTQVTVSS | low polyreactivity |
| QVQLVQSGGGLVQAGGSLRLSCAASGSTFYYYGMRSYREAPGKEMELFASISWRGGSTYSADSVKGRYTISRDNAKNTVYLQMNSLKPEDTAVYYCAASRRPWYRAVTWNAGDYWGQGTQVTVSS | high polyreactivity |
| QVQLVESGGGLVQAGGSLSLSCAASGRIFPTYTMGWYRQAPGKERELVAAINRGGGSTYYADSVKGRFTISRDIAMNTVYLQMYSLKAEDTAVYYCNARTYYRSYGYDYCGQGTQVTVSS | low polyreactivity |
| QVQLVESGGGLVQAGGSLRLSCAASGSIFSVYAMGWYRQAPGKERELVAAISRSGGSTYYADSVKGRFTISRDNAKNTVYLQMNSLKPEDTAVYYCAARLAGRGSSSSRVVRTGGYWGQGTQVTVSS | high polyreactivity |
| QVQLVESGGGLVQAGGSLRLSCAASGSIFGYYAMGWYRQAPGKERELVAAISWSGGRTYYADSVKGRFTISRDNAKNTVYLQMNSLKPEDTAVYYCNARWRSGPRAYDYWGQGTQVSVSS | high polyreactivity |
| QVQLVESWGGLVQAGGSLRLSCSAYGYTFTLTPMGWSRQAPGKERELVAAISRSGGSTYYADSVKGRFTISRDNAKNTVYLQMISLKPEDTAVYYCDADGYSGYDYWGQGTLVTVSS | low polyreactivity |

Reference: the nanobody polyreactivity screen of Harvey et al. (2022)
